# In PMC3553500:
# Target: GAPDH (purified recombinant, no tag named) (UniProt P04406)
# Test: ELISA
# NleB-FLAG (purified) (enzyme), sequence (Q5XMK8 whole entry): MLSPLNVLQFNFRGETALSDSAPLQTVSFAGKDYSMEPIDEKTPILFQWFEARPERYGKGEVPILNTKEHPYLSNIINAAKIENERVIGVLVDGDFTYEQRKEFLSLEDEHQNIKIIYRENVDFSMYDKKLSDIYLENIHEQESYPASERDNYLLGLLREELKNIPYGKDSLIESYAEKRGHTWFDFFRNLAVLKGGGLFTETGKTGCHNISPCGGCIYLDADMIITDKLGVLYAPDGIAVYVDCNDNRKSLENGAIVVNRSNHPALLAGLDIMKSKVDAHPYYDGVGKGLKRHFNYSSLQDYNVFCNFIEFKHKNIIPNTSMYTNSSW
substance,measurement,value
NleB-FLAG (purified) (enzyme),Kd,32 µM
